Patent US8221992

B1: recombinant PKCε (rePKCε) (Calbiochem) (protein)
chain: MVVFNGLLKIKICEAVSLKPTAWSLRHAVGPRPQTFLLDPYIALNVDDSRIGQTATKQKTNSPAWHDEFVTDVCNGRKIELAVFHDAPIGYDDFVANCTIQFEELLQNGSRHFEDWIDLEPEGRVYVIIDLSGSSGEAPKDNEERVFRERMRPRKRQGAVRRRVHQVNGHKFMATYLRQPTYCSHCRDFIWGVIGKQGYQCQVCTCVVHKRCHELIITKCAGLKKQETPDQVGSQRFSVNMPHKFGIHNYKVPTFCDHCGSLLWGLLRQGLQCKVCKMNVHRRCETNVAPNCGVDARGIAKVLADLGVTPDKITNSGQRRKKLIAGAESPQPASGSSPSEEDRSKSAPTSPCDQEIKELENNIRKALSFDNRGEEHRAASSPDGQLMSPGENGEVRQGQAKRLGLDEFNFIKVLGKGSFGKVMLAELKGKDEVYAVKVLKKDVILQDDDVDCTMTEKRILALARKHPYLTQLYCCFQTKDRLFFVMEYVNGGDLMFQIQRSRKFDEPRSRFYAAEVTSALMFLHQHGVIYRDLKLDNILLDAEGHCKLADFGMCKEGILNGVTTTTFCGTPDYIAPEILQELEYGPSVDWWALGVLMYEMMAGQPPFEADNEDDLFESILHDDVLYPVWLSKEAVSILKAFMTKNPHKRLGCVASQNGEDAIKQHPFFKEIDWVLLEQKKIKPPFKPRIKTKRDVNNFDQDFTREEPVLTLVDEAIVKQINQEEFKGFSYFGEDLMP
B2: PKCε in THP1 cell lysates (protein)
chain: B1 chain
B3: recombinant PKCζ (rePKCζ) (protein)
chain: MPSRTGPKMEGSGGRVRLKAHYGGDIFITSVDAATTFEELCEEVRDMCRLHQQHPLTLKWVDSEGDPCTVSSQMELEEAFRLARQCRDEGLIIHVFPSTPEQPGLPCPGEDKSIYRRGARRWRKLYRANGHLFQAKRFNRRAYCGQCSERIWGLARQGYRCINCKLLVHKRCHGLVPLTCRKHMDSVMPSQEPPVDDKNEDADLPSEETDGIAYISSSRKHDSIKDDSEDLKPVIDGMDGIKISQGLGLQDFDLIRVIGRGSYAKVLLVRLKKNDQIYAMKVVKKELVHDDEDIDWVQTEKHVFEQASSNPFLVGLHSCFQTTSRLFLVIEYVNGGDLMFHMQRQRKLPEEHARFYAAEICIALNFLHERGIIYRDLKLDNVLLDADGHIKLTDYGMCKEGLGPGDTTSTFCGTPNYIAPEILRGEEYGFSVDWWALGVLMFEMMAGRSPFDIITDNPDMNTEDYLFQVILEKPIRIPRFLSVKASHVLKGFLNKDPKERLGCRPQTGFSDIKSHAFFRSIDWDLLEKKQALPPFQPQITDDYGLDNFDTQFTSEPVQLTPDDEDAIKRIDQSEFEGFEYINPLLLSTEESV
B4: PKCζ in THP1 cell lysates (protein)
chain: B3 chain

Tests used:
[1] = target: Mal (MyD88 adaptor-like), P58753
[2] = target: GST-TRAM fusion protein (wild type), Q86XR7
[3] = target: GST-TRAM Ser16 mutant (serine 16 mutated to alanine), Q86XR7
GST-TRAM Ser16 mutant (serine 16 mutated to alanine), Q86XR7, sequence (Q86XR7 whole entry, looked up, change not shown): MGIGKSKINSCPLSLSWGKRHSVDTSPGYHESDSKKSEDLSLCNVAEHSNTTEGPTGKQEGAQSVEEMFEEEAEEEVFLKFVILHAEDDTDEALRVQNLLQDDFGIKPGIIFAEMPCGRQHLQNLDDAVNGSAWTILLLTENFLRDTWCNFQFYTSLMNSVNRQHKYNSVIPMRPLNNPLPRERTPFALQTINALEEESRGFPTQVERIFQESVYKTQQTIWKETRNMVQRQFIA

GST-TRAM fusion protein (wild type), Q86XR7, sequence (Q86XR7 whole entry, the tested form may be a part): as the sequence (Q86XR7 whole entry, looked up, change not shown) above
Mal (MyD88 adaptor-like), P58753, sequence (P58753 whole entry, the tested form may be a part): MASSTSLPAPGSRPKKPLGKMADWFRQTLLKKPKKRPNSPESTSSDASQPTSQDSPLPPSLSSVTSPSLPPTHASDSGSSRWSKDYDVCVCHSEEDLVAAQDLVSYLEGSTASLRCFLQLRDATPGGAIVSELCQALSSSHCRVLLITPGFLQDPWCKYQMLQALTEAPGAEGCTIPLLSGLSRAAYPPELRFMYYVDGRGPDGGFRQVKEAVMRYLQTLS

Protein | phosphorylation in an in-vitro kinase assay ([γ32P] ATP, autoradiography) [1] | phosphorylation in an in-vitro kinase assay ([γ32P] ATP, autoradiography) [2] | phosphorylation of GST-TRAM after pulldown from immunodepleted THP1 lysates (kinase assay) [2] | phosphorylation of GST-TRAM after pulldown from THP1 lysates (kinase assay) [3]
B1 | rePKCε phosphorylated WT-TRAM but not Mal | recombinant PKCε (rePKCε) (Calbiochem) phosphorylated GST-TRAM |  | 
B2 |  |  | the removal of PKCε from the lysates abolishes the phosphorylation of TRAM | we mutated serine 16 to an alanine and found that the LPS dependent phosphorylation of TRAM was severally impaired
B3 |  | Recombinant PKCζ did not phosphorylate TRAM again suggesting specificity |  | 
B4 |  |  | The removal of PKCζ had no effect on the phosphorylation of TRAM | 
